# ± gives the standard deviation of the averaged measurements.
# B1: library; a variant is named by its letters at N, in order (parent)
# chain: GCUGUCACCGAGAAACUGUGAAGUAUAUCUUAAACCUGGGCACUUAAAAGAUAUAUGGAGUUAGUAGUGCAACCUGCUCGGUCUGAUGAGUCCNNNNNNGGACGAAACAGC
# Tests used:
# cyclic di-GMP [1] = variants of: B1; test: FACS-Seq fitted mean relative fluorescence mCherry/BFP without ligand (log10 relative fluorescence); HEK293T; ligand: cyclic di-GMP (c-di-GMP-II aptamer); higher = higher reporter protein expression; settings: ligand present: no
# In short: (§1)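 HEK293T libraries were made by lentiviral transduction with a ribozyme-switch mCherry reporter and an EF1α-BFP marker, enriched, and incubated with or without ligand for 48 h. Cells were sorted into 6 mCherry/BFP bins, and each bin's genomic DNA was PCR-amplified, barcoded and run on MiSeq. Fluorescence was derived by normal fitting of the bin counts. The fitted log10(mCherry/BFP) mean was scaled to five spiked-in control ribozymes.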
# cyclic di-GMP [2] = variants of: B1; test: normalized RNA/DNA level without ligand (relative to sTRSVctl = 100) (log10 (% of sTRSVctl)); HEK293T; ligand: cyclic di-GMP (c-di-GMP-II aptamer); higher = less ribozyme self-cleavage, higher mRNA level; settings: reporter: mCherry (pCS4076), ligand present: no
# In short: (§2)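 HEK293T cells were transfected with library plasmids carrying ribozyme switches linked to an mCherry reporter, or an eGFP reporter in some ligand experiments, at 4 µg per well of a 6-well plate, with any ligand added 1 h beforehand. After 72 h, total RNA was extracted with EDTA, reverse-transcribed, amplified, barcoded and sequenced. RNA level was defined as RNA reads over DNA reads, normalized to a spiked-in non-cleaving sequence or to the top-ranked sequences. That value was multiplied by 100 and converted to log10, the top set was 25 sequences, and only sequences with ≥100 DNA reads were retained.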
# cyclic di-GMP [3] = variants of: B1; test: FACS-Seq fitted mean relative fluorescence mCherry/BFP with ligand (log10 relative fluorescence); HEK293T; ligand: cyclic di-GMP (c-di-GMP-II aptamer); ligand concentration (+) FACS-Seq: 1 mM; higher = higher reporter protein expression; settings: ligand present: yes
# In short: as §1
# cyclic di-GMP [4] = variants of: B1; test: normalized RNA/DNA level with ligand (relative to sTRSVctl = 100) (log10 (% of sTRSVctl)); HEK293T; ligand: cyclic di-GMP (c-di-GMP-II aptamer); ligand concentration (+) RNA-Seq: 1 mM; higher = less ribozyme self-cleavage, higher mRNA level; settings: reporter: mCherry (pCS4076), ligand present: yes
# In short: as §2
variant,measurement,setting,value
GUCAAU,FACS-Seq fitted mean (log10),cyclic di-GMP [1],-0.201 ± 0.12
same,normalized RNA/DNA level without ligand (log10),cyclic di-GMP [2],1.63 ± 0.034
same,FACS-Seq fitted mean (log10),cyclic di-GMP [3],0.152 ± 0.028
same,normalized RNA/DNA level with ligand (log10),cyclic di-GMP [4],1.78 ± 0.087
UUGUAG,FACS-Seq fitted mean (log10),cyclic di-GMP [1],-0.163 ± 0.065
same,normalized RNA/DNA level without ligand (log10),cyclic di-GMP [2],1.6682 ± 0.00036
same,FACS-Seq fitted mean (log10),cyclic di-GMP [3],0.112 ± 0.032
same,normalized RNA/DNA level with ligand (log10),cyclic di-GMP [4],1.83 ± 0.14
UUCCGU,FACS-Seq fitted mean (log10),cyclic di-GMP [1],0.0201 ± 0.13
same,normalized RNA/DNA level without ligand (log10),cyclic di-GMP [2],1.7 ± 0.02
same,FACS-Seq fitted mean (log10),cyclic di-GMP [3],0.296 ± 0.053
same,normalized RNA/DNA level with ligand (log10),cyclic di-GMP [4],1.83 ± 0.08
CUCCGU,FACS-Seq fitted mean (log10),cyclic di-GMP [1],0.15 ± 0.23
same,normalized RNA/DNA level without ligand (log10),cyclic di-GMP [2],1.8 ± 0.02
same,FACS-Seq fitted mean (log10),cyclic di-GMP [3],0.423 ± 0.0021
same,normalized RNA/DNA level with ligand (log10),cyclic di-GMP [4],1.88 ± 0.093
GUCUGU,FACS-Seq fitted mean (log10),cyclic di-GMP [1],-0.165 ± 0.035
same,normalized RNA/DNA level without ligand (log10),cyclic di-GMP [2],1.66 ± 0.044
same,FACS-Seq fitted mean (log10),cyclic di-GMP [3],0.0419 ± 0.17
same,normalized RNA/DNA level with ligand (log10),cyclic di-GMP [4],1.81 ± 0.069
CUCGCU,FACS-Seq fitted mean (log10),cyclic di-GMP [1],-0.0213 ± 0.09
same,normalized RNA/DNA level without ligand (log10),cyclic di-GMP [2],1.8 ± 0.047
same,FACS-Seq fitted mean (log10),cyclic di-GMP [3],0.226 ± 0.12
same,normalized RNA/DNA level with ligand (log10),cyclic di-GMP [4],1.9 ± 0.079
UUACCA,FACS-Seq fitted mean (log10),cyclic di-GMP [1],-0.0643 ± 0.075
same,normalized RNA/DNA level without ligand (log10),cyclic di-GMP [2],1.75 ± 0.055
same,FACS-Seq fitted mean (log10),cyclic di-GMP [3],0.275 ± 0.047
same,normalized RNA/DNA level with ligand (log10),cyclic di-GMP [4],1.84 ± 0.1
UUACCC,FACS-Seq fitted mean (log10),cyclic di-GMP [1],-0.256 ± 0.059
same,normalized RNA/DNA level without ligand (log10),cyclic di-GMP [2],1.798 ± 0.0066
same,FACS-Seq fitted mean (log10),cyclic di-GMP [3],0.0203 ± 0.12
same,normalized RNA/DNA level with ligand (log10),cyclic di-GMP [4],1.88 ± 0.11
CUCUCU,FACS-Seq fitted mean (log10),cyclic di-GMP [1],-0.0993 ± 0.11
same,normalized RNA/DNA level without ligand (log10),cyclic di-GMP [2],1.63 ± 0.06
same,FACS-Seq fitted mean (log10),cyclic di-GMP [3],0.163 ± 0.0032
same,normalized RNA/DNA level with ligand (log10),cyclic di-GMP [4],1.79 ± 0.13
AUGAGU,FACS-Seq fitted mean (log10),cyclic di-GMP [1],-0.416 ± 0.026
same,normalized RNA/DNA level without ligand (log10),cyclic di-GMP [2],1.54 ± 0.019
same,FACS-Seq fitted mean (log10),cyclic di-GMP [3],-0.0836 ± 0.048
same,normalized RNA/DNA level with ligand (log10),cyclic di-GMP [4],1.73 ± 0.14
AUGAGA,FACS-Seq fitted mean (log10),cyclic di-GMP [1],-0.299 ± 0.14
same,normalized RNA/DNA level without ligand (log10),cyclic di-GMP [2],1.35 ± 0.12
same,FACS-Seq fitted mean (log10),cyclic di-GMP [3],-0.147 ± 0.0049
same,normalized RNA/DNA level with ligand (log10),cyclic di-GMP [4],1.54 ± 0.15
CUGAUG,FACS-Seq fitted mean (log10),cyclic di-GMP [1],-0.749 ± 0.029
same,normalized RNA/DNA level without ligand (log10),cyclic di-GMP [2],1.39 ± 0.12
same,FACS-Seq fitted mean (log10),cyclic di-GMP [3],-0.5264 ± 0.0006
same,normalized RNA/DNA level with ligand (log10),cyclic di-GMP [4],1.58 ± 0.081
CUGAUA,FACS-Seq fitted mean (log10),cyclic di-GMP [1],-0.362 ± 0.04
same,normalized RNA/DNA level without ligand (log10),cyclic di-GMP [2],1.27 ± 0.11
same,FACS-Seq fitted mean (log10),cyclic di-GMP [3],-0.182 ± 0.1
same,normalized RNA/DNA level with ligand (log10),cyclic di-GMP [4],1.5 ± 0.1
CUGAUU,FACS-Seq fitted mean (log10),cyclic di-GMP [1],-0.154 ± 0.084
same,normalized RNA/DNA level without ligand (log10),cyclic di-GMP [2],1.505 ± 0.015
same,FACS-Seq fitted mean (log10),cyclic di-GMP [3],0.107 ± 0.18
same,normalized RNA/DNA level with ligand (log10),cyclic di-GMP [4],1.71 ± 0.12
AUGCCA,FACS-Seq fitted mean (log10),cyclic di-GMP [1],-0.283 ± 0.032
same,normalized RNA/DNA level without ligand (log10),cyclic di-GMP [2],1.704 ± 0.0062
same,FACS-Seq fitted mean (log10),cyclic di-GMP [3],0.176 ± 0.089
same,normalized RNA/DNA level with ligand (log10),cyclic di-GMP [4],1.84 ± 0.08
GUAAGG,FACS-Seq fitted mean (log10),cyclic di-GMP [1],-0.295 ± 0.022
same,normalized RNA/DNA level without ligand (log10),cyclic di-GMP [2],1.59 ± 0.078
same,FACS-Seq fitted mean (log10),cyclic di-GMP [3],0.0239 ± 0.038
same,normalized RNA/DNA level with ligand (log10),cyclic di-GMP [4],1.74 ± 0.067
GUAAGA,FACS-Seq fitted mean (log10),cyclic di-GMP [1],-0.617 ± 0.027
same,normalized RNA/DNA level without ligand (log10),cyclic di-GMP [2],1.46 ± 0.061
same,FACS-Seq fitted mean (log10),cyclic di-GMP [3],-0.308 ± 0.026
same,normalized RNA/DNA level with ligand (log10),cyclic di-GMP [4],1.61 ± 0.13
UUAGUG,FACS-Seq fitted mean (log10),cyclic di-GMP [1],-0.38 ± 0.014
same,normalized RNA/DNA level without ligand (log10),cyclic di-GMP [2],1.625 ± 0.0063
same,FACS-Seq fitted mean (log10),cyclic di-GMP [3],-0.0431 ± 0.00068
same,normalized RNA/DNA level with ligand (log10),cyclic di-GMP [4],1.81 ± 0.091
